The text below walks through data of US20260210971A1 (Pfizer, published 2026).

Substitutions are numbered along the chain they refer to. A value given as a limit tells only on which side of the number the result lay.

Broadly, the IC50 is the concentration needed to halve the response being measured. One may read the Kd as the constant that tells how readily two partners part at equilibrium. As a reminder, the koff is the rate constant with which the complex falls apart. One may read the kon as the second-order rate constant of association. A word on the EC50: it is the concentration giving half of the maximal effect.

In assay [1] the target is T1, endogenous TL1A of stimulated cynomolgus monkey peripheral blood (cynomolgus monkey, UniProt G7PRK8 72-251).
T1 construct: also called sTL1A (cynomolgus)
T1 sequence: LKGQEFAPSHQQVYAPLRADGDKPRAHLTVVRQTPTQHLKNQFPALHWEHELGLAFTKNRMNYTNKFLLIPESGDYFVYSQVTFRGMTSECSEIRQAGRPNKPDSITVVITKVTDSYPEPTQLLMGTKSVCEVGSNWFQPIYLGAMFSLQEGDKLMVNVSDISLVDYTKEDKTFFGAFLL
The assay is described as follows: MSD ligand-binding assay of 1D1 1.31-free sTL1A in plasma of stimulated cynomolgus blood; upper end over the monkeys; upper end of range over 6 monkeys.
Description: Cynomolgus monkey peripheral blood treated with 1 ng/ml recombinant human IL-12 and 10 ng/ml recombinant human IL-18 was stimulated by immune complex coated plates for 24 hours at 37° C. […] Plasma was prepared from these samples and IFNγ was measured in the plasma samples by a quantitative immune-ligand binding assay using a Mesoscale (MSD) kit. […] Cynomolgus monkey peripheral blood treated with 1 ng/ml recombinant human IL-12 and 10 ng/ml recombinant human IL-18 was stimulated by immune complex coated plates for 24 hours at 37° C.
For IC and IL-12 and IL-18 stimulation, cynomolgus monkey blood was collected in sodium heparin coated tubes and used within one hour after the blood draw. Human IL-12 (1 ng/mL final concentration) and human IL-18 (10 ng/ml final concentration) were mixed in with blood prior to addition of 95 μL of the blood/IL-12/IL-18 mixture to each well of the IC coated plates.

In another assay the target is T2, human Lymphotoxin α1-β2 (human, UniProt P01374 35-205; Q06643 49-244, limits assumed).
T2 construct: Copies read from the name α1-β2; also called Lymβ 2
T2 sequence (looked up) 1: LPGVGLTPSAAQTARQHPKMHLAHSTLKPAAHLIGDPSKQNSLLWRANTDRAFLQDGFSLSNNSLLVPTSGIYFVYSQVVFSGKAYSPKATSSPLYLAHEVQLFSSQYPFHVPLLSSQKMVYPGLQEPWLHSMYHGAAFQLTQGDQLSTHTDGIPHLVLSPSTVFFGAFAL
T2 sequence (looked up) 2: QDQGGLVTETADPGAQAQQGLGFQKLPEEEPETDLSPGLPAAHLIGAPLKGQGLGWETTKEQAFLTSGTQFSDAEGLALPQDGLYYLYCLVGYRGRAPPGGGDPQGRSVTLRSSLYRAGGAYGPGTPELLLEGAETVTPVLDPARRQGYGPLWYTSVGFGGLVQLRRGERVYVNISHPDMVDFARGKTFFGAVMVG
The assay is described as follows: plate ELISA, cytokine coated.

Another assay addresses T3, human Lymphotoxin α2-β1 (human, UniProt P01374 35-205; Q06643 49-244, limits assumed).
T3 construct: Copies read from the name α2-β1; also called Lymβ 1
T3 sequence (looked up) 1: T2 sequence (looked up) 1
T3 sequence (looked up) 2: T2 sequence (looked up) 2
The assay is described as follows: plate ELISA, cytokine coated. Background: ELISA stands for enzyme-linked immunosorbent assay.

The target of a further assay is T4, human TNF-α (human, UniProt P01375 77-233).
T4 construct: also called TNF alpha
T4 sequence (P01375 77-233 limits assumed): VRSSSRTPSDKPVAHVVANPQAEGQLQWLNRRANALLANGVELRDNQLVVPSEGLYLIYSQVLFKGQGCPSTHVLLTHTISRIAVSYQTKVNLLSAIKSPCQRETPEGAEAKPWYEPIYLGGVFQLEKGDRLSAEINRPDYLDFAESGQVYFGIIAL
Put plainly: plate ELISA, cytokine coated.

A further assay deals with human TNFSF14 (LIGHT) (human, UniProt O43557 74-240, limits assumed). Put plainly: plate ELISA, cytokine coated.
Chain of human TNFSF14 (LIGHT) (O43557 74-240 limits assumed): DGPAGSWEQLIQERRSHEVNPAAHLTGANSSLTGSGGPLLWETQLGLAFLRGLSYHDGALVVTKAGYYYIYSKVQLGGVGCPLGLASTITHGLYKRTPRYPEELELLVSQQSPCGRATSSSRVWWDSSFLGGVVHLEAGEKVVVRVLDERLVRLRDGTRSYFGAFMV
The target in another assay is human TNFSF10 (TRAIL) (human, UniProt P50591 114-281). Put plainly: plate ELISA, cytokine coated.
Chain of human TNFSF10 (TRAIL) (P50591 114-281 limits assumed): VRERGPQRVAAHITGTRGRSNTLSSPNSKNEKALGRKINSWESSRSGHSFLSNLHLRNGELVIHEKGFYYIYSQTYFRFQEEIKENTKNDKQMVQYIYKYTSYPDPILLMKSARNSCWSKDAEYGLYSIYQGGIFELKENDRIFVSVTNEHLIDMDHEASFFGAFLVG
The target in the next assay is T5, human TNF-β (human, UniProt P01374 35-205).
T5 construct: The source sentence prints 'Human TNF-from Peprotech'
T5 sequence (looked up): T2 sequence (looked up) 1
The assay is described as follows: plate ELISA, cytokine coated.

Assay [2] deals with T6, recombinant soluble cynomolgus monkey TL1A (cynomolgus monkey, UniProt O95150 72-251 (human entry)).
T6 construct: also called cyno rsTL1A; cyno TL1A
T6 chain: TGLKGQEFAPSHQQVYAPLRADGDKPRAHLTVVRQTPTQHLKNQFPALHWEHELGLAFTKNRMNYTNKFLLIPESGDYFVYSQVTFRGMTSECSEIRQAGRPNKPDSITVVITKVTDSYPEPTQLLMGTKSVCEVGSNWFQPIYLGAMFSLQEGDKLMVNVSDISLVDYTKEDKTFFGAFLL
The assay is described as follows: SPR, IgG captured on anti-hIgG, TL1A injected. (In SPR one partner is held on a chip, and binding of the other changes the refractive index at the surface.)
Excerpt: (§1) The antibodies were captured via directly immobilized anti-human IgG (GE Healthcare) onto a carboxymethylated dextran sensor chip surface (CM5) using a Biacore T100 or T200 instrument. Anti-human IgG was immobilized through amine coupling to densities of approximately 4,000-13,000 response units (RU). […] At the end of each cycle, the entire anti-hIgG surface was regenerated by a 30-second pulse of 3M MgCl₂ followed by two consecutive 15-second pulses of PBS-NET. […] All injections were performed at 25° C. at a collection rate of 10 Hz. All sensorgrams were double referenced by using both a control surface and buffer injections. Rate constants were determined by fitting the data to a 1:1 model in Biacore T100, T200 evaluation software v1.0, or BIAevaluation software v4.1.1 and the equation KD=Kd/kₐ.
(§2) At the highest cytokine concentrations, the dissociation phase was sometimes extended to 60 minutes to achieve at least a 5% decrease in binding signal.

Assay [3] has as its target T7, recombinant soluble human TL1A (human, UniProt O95150 71-251).
T7 construct: Homotrimer, expressed in HEK293 and purified over HitrapNTA; no tag is described; Used biotinylated in the HTRF assay and in flow cytometry; also called rsTL1A; hTL1A
T7 sequence: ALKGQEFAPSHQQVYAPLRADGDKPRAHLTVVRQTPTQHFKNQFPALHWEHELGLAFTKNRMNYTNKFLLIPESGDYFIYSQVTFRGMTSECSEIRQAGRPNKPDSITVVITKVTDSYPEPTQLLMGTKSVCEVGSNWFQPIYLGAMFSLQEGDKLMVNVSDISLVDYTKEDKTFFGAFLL
The assay is described as follows: plate ELISA, TL1A coated, antibody titrated; plate of Lymβ 1.
Description: (§3) The first 6 rows of each plate were coated with the test article cytokine, and the last two rows were coated with TL1A as a positive control. Rows 1 and 2 were duplicate rows where the test article cytokine was tested for binding to increasing concentrations of its corresponding anti-cytokine positive control antibody. […] The experiment for each cytokine was repeated three times.
(§4) Plates were incubated overnight at 4° C. After washing the plates three times (3×) with 300 μL PBST using a plate washer (model ELx405; BioTek), plates were blocked by incubating for 1 hour at room temperature with 300 μL of blocking buffer (PBST+0.5% BSA) in each well. […] Plates were then washed 5 times with PBST using the plate washer.

The target in assay [4] is T8, endogenous TL1A of stimulated human peripheral blood (human, UniProt O95150 72-251, limits assumed).
T8 construct: also called endogenous soluble TL1A
T8 sequence (looked up): T1 sequence with L39F, V78I
The assay is described as follows: MSD ligand-binding assay of 1D1 1.31-free soluble TL1A in plasma of human whole blood stimulated 24 h with immune complex + IL-12/IL-18.
Description: After 24 hours of culture at 37° C., 100 μL of 5% bovine serum albumin in PBS were added and mixed well with the 200 μL of blood cultures to dilute plasma (dilution factor: 1.5). […] IFNγ was measured using the MSD human IFNγ kit (Catalog No. K151AEB-1) following the manufacturer's instructions. […] The following day, plates were washed three times with 150 μL per well of 0.1% Tween 20 in PBS, followed with 150 μL per well of blocking solution (5% bovine serum albumin in PBS), then the plates were incubated at room temperature for 1 hour with orbital shaking (1500 rpm). After the plates were washed as mentioned above, diluted plasma samples were added and incubated at 4° C. overnight. […] TL1A standard curves were generated using recombinant human soluble TL1A. Plates were read following the manufacturer's procedure, standard curve and plasma concentration of the cytokine were calculated with the MSD software.

The target in assay [5] is T7, recombinant soluble human TL1A. Put plainly: SPR, IgG captured on anti-hIgG, TL1A injected; off rate too slow to measure.
Assay [6] deals with T9, recombinant soluble rat TL1A (rat, UniProt Q8K3Y7 76-252).
T9 construct: also called rat rsTL1A
T9 sequence: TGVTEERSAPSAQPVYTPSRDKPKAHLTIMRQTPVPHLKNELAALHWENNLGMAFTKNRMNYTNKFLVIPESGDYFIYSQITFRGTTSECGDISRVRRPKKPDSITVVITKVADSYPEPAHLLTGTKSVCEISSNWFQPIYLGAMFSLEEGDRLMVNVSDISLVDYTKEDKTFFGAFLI
The assay is described as follows: SPR, IgG captured on anti-hIgG, TL1A injected.
Excerpt: as §1, §2

The target of assay [7] is T8, endogenous TL1A of stimulated human …. Put plainly: cell-based or functional assay.
Assay [8] has as its target T7, recombinant soluble human TL1A. The assay is described as follows: cell-based or functional assay.
Assay [9] has the same target. The assay is described as follows: plate ELISA, TL1A coated, antibody titrated; plate of TNFSF14.
Description: as §3, §4
Assay [10] has the same target. The assay is described as follows: plate ELISA, TL1A coated, antibody titrated; plate of TNF α.
Description: as §3, §4

Description for human Lymphotoxin α1-β2: as §3, §4
Description for human Lymphotoxin α2-β1: as §3, §4
Description for human TNF-α: as §3, §4
Description for human TNF-β: as §3, §4
Description for human TNFSF10 (TRAIL): as §3, §4
Description for human TNFSF14 (LIGHT): as §3, §4

B1: 1D1 1.31 (antibody, human IgG1, kappa, V domains shown)
VH: QVQLVQSGAEVKKPGASVKVSCKASGYDFTYYGISWVRQAPGQGLEWMGWISTYNGNTHYARMLQGRVTMTTDTSTRTAYMELRSLRSDDTAVYYCARENYYGSGAYRGGMDVWGQGTTVTVSS
VL: EIVLTQSPATLSLSPGERATLSCRASQSVSSYLAWYQQKPGQAPRLLIYDASNRATGIPARFSGSGSGTDFTLTISSLEPEDFAVYYCQQRSNWPWTFGQGTKVEIKR
notes: Full length human IgG1 with effector function-null mutations in the Fc, produced in CHO cells; Used biotinylated for staining of monocytes
With B1, in assay [1], the IC50 is 0.09 nM. Moreover, the binding result with human Lymphotoxin α1-β2, with human Lymphotoxin α2-β1, with human TNF-α, with human TNFSF14 (LIGHT), with human TNFSF10 (TRAIL) and in the assay with human TNF-β was “no binding (tested: 25 µg/mL highest antibody concentration)” each time. The equilibrium dissociation constant (Kd) in assay [2] is 0.081 nM; in assay [5], less than 0.1 nM; in assay [6] it was 4.86 nM. Besides, the koff in assay [2] came out at 3.6e-05 s⁻¹; in [6], 0.0026 s⁻¹. The kon in [2] worked out at 450000 M⁻¹ s⁻¹; in [6], 540000 M⁻¹ s⁻¹. Also, the t1/2 turned out to be 5.34 h in [2] and 4.38 min in assay [6]. Besides, the EC50 in [3] worked out at 0.0063 ng/mL; in assay [9], 0.0084 ng/mL; in assay [10] it was 0.0082 ng/mL. Further, in assay [4], the “IC50 (read off the curve)” value was roughly 0.005 nM. In addition, in assay [7], the “HWB Assay, average IC50” value was 0.00167 nM. The “Caspase Assay, average IC50” value in assay [8] is 0.106 nM. For the same molecule, the “NFkB Assay, average IC50” value in [8] turned out to be 0.15 nM.
